System: progesterone
Test: In vivo activity of bovine P45017α in whole cells of transformed Kluyveromyces lactis (3H-labelled steroid, RP-HPLC)
Assay type: cell-based
Details: expressed in K. lactis under the lactase promoter
Description: Transformation of K. lactis strain CBS 2360 was performed with pGB 17α-5 as described in Example 14 and in vivo activity was determined in the whole cells of the transformed K. lactis strain. Four independent transformants (17α-3,17α-7,17α-10 and 17α-11) were grown in rich medium (10 g of yeast extracts, 10 g of bactopeptone and 20 g of glucose/liter) for 72 hours to reach an A600 of at least 30. The cells were harvested and resuspended at 1×10^6 cells/ml (A600 =1).
Five ml of culture were incubated in the presence of ^3H-labelled progesterone (20 μM) for 24 hours at 28° C. and then were extracted with dichloromethane. […] The amount of 17α-hydroxyprogesterone was about 40% (about 23% to 58% depending on the transformant) of the substract added (see FIG. 57 corresponding to 17α-3). No androstenedione, which was the product of the C17-20-lyase activity of P45017α, was detected.
^3H-labelled 17α-hydroxyprogesterone was also incubated with the transformants under the conditions described above and after 24 hours of incubation, no androstenedione was detected.

B1: bovine P45017α: bovine cytochrome P450 steroid 17α-hydroxylase expressed in K. lactis under the lactase promoter (protein, UniProt P05185 1-509, looked up)
Steroid …: MWLLLAVFLLTLAYLFWPKTKHSGAKYPRSLPSLPLVGSLPFLPRRGQQHKNFFKLQEKYGPIYSFRLGSKTTVMIGHHQLAREVLLKKGKEFSGRPKVATLDILSDNQKGIAFADHGAHWQLHRKLALNAFALFKDGNLKLEKIINQEANVLCDFLATQHGEAIDLSEPLSLAVTNIISFICFNFSFKNEDPALKAIQNVNDGILEVLSKEVLLDIFPVLKIFPSKAMEKMKGCVQTRNELLNEILEKCQENFSSDSITNLLHILIQAKVNADNNNAGPDQDSKLLSNRHMLATIGDIFGAGVETTTSVIKWIVAYLLHHPSLKKRIQDDIDQIIGFNRTPTISDRNRLVLLEATIREVLRIRPVAPTLIPHKAVIDSSIGDLTIDKGTDVVVNLWALHHSEKEWQHPDLFMPERFLDPTGTQLISPSLSYLPFGAGPRSCVGEMLARQELFLFMSRLLQRFNLEIPDDGKLPSLEGHASLVLQIKPFKVKIEVRQAWKEAQAEGSTP
B1 was tested, and the C17-20 lyase activity was “does not show any activity C17-20 lyase”.
